Tests used:
[1] = molecular target: T1, SeSSB (single-stranded DNA-binding protein, STM_4256) (Salmonella enterica, UniProt P0A2F6); assay: EMSA, inhibition of binding of purified SeSSB ([…]) to biotinylated ssDNA dT35
T1 construct: gene ssb; His-tagged SeSSB, 176 residues (pET21b-SeSSB)

[2] = molecular target: the molecule itself; assay: SEC; purified SeSSB (5 mg/mL) on a Superdex 200 prep-grade column in 100 mM NaCl, 100 mM MES, pH 6.5; calibrated with standard proteins; native mass estimated 76641 Da; tetramer
[3] = molecular target: T2, SeSSB (single-stranded DNA-binding protein) (Salmonella enterica serovar Typhimurium …, UniProt P0A2F6 1-176); assay: EMSA; 37 C, 40 mM Tris-HCl pH 7.5, 50 mM NaCl; protein at 50% bound; dA EMSA: 20 mM Tris-HCl pH 8.0, 100 mM NaCl, 25 C, 30 min, 1.7 nM DNA; dT35 EMSA: 40 mM Tris-HCl pH 7.5, 50 mM NaCl, 37 C, 60 min, 30 fmol/uL DNA; 8% native PAGE in TBE; details: protein: recombinant; tags: His-tag (pET21b); chain copies: 4; label: biotin (5' per Methods 4.5; 3' per Results 2.5); single strand
[4] = molecular target: T2, SeSSB (single-stranded DNA-binding …); assay: EMSA; single complex; SeSSB 0-4000 nM; dA EMSA: 20 mM Tris-HCl pH 8.0, 100 mM NaCl, 25 C, 30 min, 1.7 nM DNA; dT35 EMSA: 40 mM Tris-HCl pH 7.5, 50 mM NaCl, 37 C, 60 min, 30 fmol/uL DNA; 8% native PAGE in TBE; details: protein: recombinant; tags: His-tag (pET21b); chain copies: 4; label: 5'-32P (T4 PNK); single strand
[5] = molecular target: T2, SeSSB (single-stranded DNA-binding …); assay: EMSA; two complexes at higher SeSSB (0-4000 nM); dA EMSA: 20 mM Tris-HCl pH 8.0, 100 mM NaCl, 25 C, 30 min, 1.7 nM DNA; dT35 EMSA: 40 mM Tris-HCl pH 7.5, 50 mM NaCl, 37 C, 60 min, 30 fmol/uL DNA; 8% native PAGE in TBE; details: protein: recombinant; tags: His-tag (pET21b); chain copies: 4; label: 5'-32P (T4 PNK); single strand
[6] = molecular target: T2, SeSSB (single-stranded DNA-binding …); assay: EMSA; two complexes; SeSSB 0-4000 nM; dA EMSA: 20 mM Tris-HCl pH 8.0, 100 mM NaCl, 25 C, 30 min, 1.7 nM DNA; dT35 EMSA: 40 mM Tris-HCl pH 7.5, 50 mM NaCl, 37 C, 60 min, 30 fmol/uL DNA; 8% native PAGE in TBE; details: protein: recombinant; tags: His-tag (pET21b); chain copies: 4; label: 5'-32P (T4 PNK); single strand

O=C1c2c(O)cc(O)cc2O[C@H](c2ccc(O)c(O)c2)[C@H]1O [taxifolin]
IC50 [1]: 98 ± 12 µM

B1: Single-stranded DNA-binding protein (SSB) from Salmonella enterica serovar Typhimurium LT2 (natural protein, UniProt P0A2F6 1-176, looked up)
chain: MASRGVNKVILVGNLGQDPEVRYMPSGGAVANLTLATSESWRDKQTGEMKEQTEWHRVVMFGKLAEVAGEYLRKGSQVYIEGQLRTRKWTDQSGQERYTTEINVPQIGGVMQMLGGRQGGGAPAGGQQQGGWGQPQQPQQPQGGNQFSGGAQSRPQQSAPAPSNEPPMDFDDDIPF
notes: SSB (STM_4256) of Salmonella enterica serovar Typhimurium LT2; monomer of 176 amino acid residues, ~19 kDa; residues 1-115 ordered and 116-176 disordered in the crystal; No removal of the tag is described; also called SeSSB; S. enterica SSB
stoichiometry N [2]: 4

TTTTTTTTTTTTTTTTTTTTTTTTTTTTTTTTTTT (ssDNA) [dT35]
Kd [3]: 0.23 ± 0.02 µM

AAAAAAAAAAAAAAAAAAAAAAAAAAAAAAAAAAA (ssDNA) [dA35]
binding result [4]: binds

AAAAAAAAAAAAAAAAAAAAAAAAAAAAAAAAAAAAAAAA (ssDNA) [dA40]
binding result [4]: binds

AAAAAAAAAAAAAAAAAAAAAAAAAAAAAAAAAAAAAAAAAAAAA (ssDNA) [dA45]
binding result [5]: binds

AAAAAAAAAAAAAAAAAAAAAAAAAAAAAAAAAAAAAAAAAAAAAAAAAA (ssDNA) [dA50]
binding result [6]: binds

B2: dA55 (ssDNA)
DNA: AAAAAAAAAAAAAAAAAAAAAAAAAAAAAAAAAAAAAAAAAAAAAAAAAAAAAAA
binding result [6]: binds

— paper PMC9029707, “Crystal Structure of an SSB Protein from Salmonella enterica and Its Inhibition by Flavanonol Taxifolin” (International Journal of Molecular Sciences, 2022)
